± gives the uncertainty stated by the source.

The data set can be described thus: amyloid nucleation score (Sup35N fusion, yeast selection) (log enrichment); library NNK3; higher = more nucleation; inactive = no reads after selection. In a few lines: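 The nucleation score is the DiMSum log enrichment of output over input reads, centred on the mode score of non-aggregating sequences. Only sequences with 100 or more input reads were scored, using Illumina sequencing of input and output plasmid inserts. Psi-negative yeast expressing Sup35N fused to peptides of 20 random codons were induced 24 hours with 100 μM copper sulfate and grown 7 days at 30°C on medium lacking adenine and uracil.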
As to SAYTNANGLNVSLFLMHHAC, the amyloid nucleation score result was “inactive”. Under SAYVLDGYMEISQILVIWSL stands “inactive”.

For SCAAPMIILTDKSCGRRGLG, the amyloid nucleation score result is “inactive”. The value for SCEFYDSVLWSYFKMAMFAL was -0.698 ± 0.8; that for SCFRFKTQLTIGLVEEISCA was “inactive”; that for SCGHFIGCWMGTQVRIYGKQ was “inactive”.

As for SCIIWKSWQV, the amyloid nucleation score was found to be 1.14 ± 0.095. SCKELLPFWARELLRFNRYC: the amyloid nucleation score result is “inactive”. Under SCKGNVFVSSGWEFGAYFTG stands 0.751 ± 0.23.

On to SCKLSHFEVTMECLEYFWMM, for which the amyloid nucleation score result was “inactive”. Under SCMSYDLRQL stands “inactive”; under SCPIRDSGTGSYL, “inactive”; under SCQKIALIWIRLTTDMRRRC, “inactive”.

As for SCRLWHKRANRVGF, the amyloid nucleation score result is “inactive”. The value for SCRVTPVLR was “inactive”; that for SCTVKSAGGFVSHRFNGSMG was “inactive”. In the case of SCVGNLENTIYNMVVRNCCY, the amyloid nucleation score entry was “inactive”. Regarding SCWKTHSAKNSNGS, the amyloid nucleation score result was “inactive”. Under SCYISNFLSGCKLFMNRFL stands “inactive”; under SDLGHWHIFRYLAAIASRRK, “inactive”. Under SDLYTIGVVPTLTFINAPCI stands “inactive”. The value for SDSSYSYTVF was “inactive”. In turn, SDTSSCCYTCVYISYVDHFF yielded an amyloid nucleation score of 2.41 ± 0.052. For the substance SDVIGLLFGEYNISVVLRGR, the amyloid nucleation score result was “inactive”. Under SDWIRNG stands “inactive”; under SEALCWIVTSVCRLRVFLV, “inactive”.

For SECYKWRIFCNILNR, the amyloid nucleation score amounted to 2.36 ± 0.058. SELRWYL: the amyloid nucleation score entry was “inactive”. Under SERKMVSKRTLKGYFRRQVI stands “inactive”. The value for SESCFDMMPCLVGLKSERGQ was “inactive”. Under SESMCVIVSRIIWCGKVSNV stands “inactive”; under SESYPTRLSGRKILTRALT, “inactive”.

As for SEVTSRNHTGYSRSRLLGMY, the amyloid nucleation score entry was “inactive”. For SEVVIWFAWYMSLLNPGLYA, the amyloid nucleation score entry is “inactive”. Under SEYLVMLTGWVTTHLQMLWV stands “inactive”; under SFAWVS, “inactive”. The value for SFDCRRSSRL was “inactive”. The value for SFDILTAVVT was “inactive”; that for SFFRMSFC was 2.91 ± 0.06. SFGAKCARGQDSTASVFNNG yielded an amyloid nucleation score of -0.33 ± 1.1.

Take SFIRASKVCFDSHGCWFGLG: the amyloid nucleation score entry is “inactive”. The value for SFLTDMPKTKVYCAMNLPMI was -0.121 ± 0.66; that for SFMKQIFSYARLVRISKSVG was “inactive”. For SFMRRCNVCIRLYSLAFDMT, the amyloid nucleation score amounted to 0.542 ± 0.23. For SFNFSRHLVLF, the amyloid nucleation score result is “inactive”.

SFNITAWMMFMNVIQGYSI registered an amyloid nucleation score of 2.38 ± 0.059. In turn, SFNLNCDDQSRNYRADVSDS yielded an amyloid nucleation score of 1.16 ± 0.099.

In the case of SFNVSRWPRKWISLNCLKIS, the amyloid nucleation score result was “inactive”. Regarding SFPKYRSNEDFPMDIRCNSS, the amyloid nucleation score result was “inactive”.

For the substance SFRFLV, the amyloid nucleation score entry is “inactive”.

With SFSPFVTFNKWSRWGLRNIG, the amyloid nucleation score entry was “inactive”.

For SFSRCLNSLEVRNKNSWWVG, the amyloid nucleation score is -0.181 ± 0.75. Under SFSVPVELSEP stands “inactive”; under SFTLPSIGWWYALFRSYWID, “inactive”; under SFYPLCRQAVTDMFNKHCFP, “inactive”. The value for SFYSNFRESRDLSSYTLNIS was “inactive”.

With SFYVLIVQRCELMSVVVMES, the amyloid nucleation score result was “inactive”.

As for SGFHERCFINQPVFST, the amyloid nucleation score entry was “inactive”.

With SGFSYRFRDSMGLDKYRCAN, the amyloid nucleation score entry was “inactive”. Under SGFYNWI stands “inactive”; under SGHVHNSMKPGRSRTCTMLR, “inactive”; under SGIIWQYNARLE, “inactive”.

Regarding SGIMSHVGGTELLNSLHLMF, the amyloid nucleation score entry was “inactive”.

Regarding SGITIEF, the amyloid nucleation score result was “inactive”.

Turning to SGKSLDDRFSK, the amyloid nucleation score result is “inactive”. Turning to SGLRSTFDNTYTLYY, the amyloid nucleation score entry was “inactive”. The value for SGLVCVT was “inactive”; that for SGMTGCTFRYGSRIQF was “inactive”; that for SGNTNDSSMHHQNLFFSA was “inactive”.

With SGSLHACLALWTLTTYCVST, the amyloid nucleation score result was “inactive”. For SGSSMTS, the amyloid nucleation score result is “inactive”.

Take SGSWVNDSESAEDLT: the amyloid nucleation score result is “inactive”. The value for SGVYLSGSSLVCNTFFGTNQ was 1.78 ± 0.088; that for SGWLA was “inactive”; that for SHFGLDAICFIKLSTDGCTG was “inactive”. As to SHFTEFPYLGLHTYAVVE, the amyloid nucleation score result was “inactive”. Under SHISWSQYRM stands 1.58 ± 0.11; under SHKFRMITIGPSSMIGALTC, “inactive”; under SHRKMFQGVKQVISSPETHS, “inactive”. Under SHSLSVGGFYSPDFRNYTCT stands 1.98 ± 0.082; under SHVLWCNMVNEFVHTLSRCG, 1.34 ± 0.082; under SHVQWPDAFFYRTSFGQLLS, “inactive”.

For the substance SHVSRVNEVSVISMSDINDH, the amyloid nucleation score result was “inactive”. Under SHYLLMFLVSDTLV stands “inactive”; under SHYRIMT, “inactive”; under SIAIRVRAIIGKSRGKCPNG, 1.81 ± 0.092. On to SICCKVRTSTYVRLCMLVLP, for which the amyloid nucleation score result was “inactive”. Take SICGKSSCMCVTNVSPLDSQ: the amyloid nucleation score turned out to be 0.304 ± 0.21. For SICIRFF, the amyloid nucleation score entry was “inactive”. The value for SICMNNLCVSWTMPYT was 1.5 ± 0.11. The value for SIDVLKTNINDIRFVIKIRR was “inactive”.

Consider SIDYADVK, for which the amyloid nucleation score entry is “inactive”.

SIFKVISERQSV: the amyloid nucleation score result was “inactive”.

For the substance SIICCAFLVVQFKER, the amyloid nucleation score was 2.62 ± 0.084.

In the case of SIIGKNYKFRATSINKGISM, the amyloid nucleation score result is “inactive”. Under SILMTVYDGYHKRSKNIAQC stands “inactive”; under SILTMLPKFGFVESLLECEG, “inactive”; under SINCTYPVRND, “inactive”. Under SIQCSK stands “inactive”; under SIVDSVQQVSVRWAMYT, -0.433 ± 1.8; under SIYLCLYREVSTVWGKRSN, “inactive”.

For SKECILVLAFDGCSGSSRWY, the amyloid nucleation score entry was “inactive”. Under SKLLIPHNNGRYSFFWSIGM stands 2.04 ± 0.078; under SKRNPRMRSQLFIGDYFAYP, -1.13 ± 1.9. Under SKSFVYPVNVCRRWLAVLGN stands “inactive”; under SKSIMTWWEVLDGGSNLKSV, “inactive”.

For SKSNIRYSNTNGH, the amyloid nucleation score result was “inactive”. For SKVKDDALPTTILCGTYNLN, the amyloid nucleation score result was “inactive”. The value for SKVKFILTRVPLFLLRIAES was “inactive”; that for SKVRMVGVSKKCGLTVISVQ was “inactive”; that for SKWAFPYPA was “inactive”. As for SKYPRLSCHRIRNVRLGWTL, the amyloid nucleation score was determined as 1.34 ± 0.085. SLAMTFYSGIGFYCFSCFFN came in with an amyloid nucleation score of 2.36 ± 0.059.

Take SLCLASGFKRCNIV: the amyloid nucleation score is -0.072 ± 0.8.

Take SLDFIHRNFVARQCIHNKGH: the amyloid nucleation score result was “inactive”. Under SLDMYPVVKKCYTYFFFQYF stands 1.16 ± 0.11; under SLFCRWLVVYPSMLRVKRVR, “inactive”. The value for SLFINT was “inactive”; that for SLFKEWAWA was “inactive”; that for SLFVLCFH was 0.717 ± 0.13. Take SLKARDVRSWSLSLLVQLAF: the amyloid nucleation score result is “inactive”. Take SLKSNTVCDNL: the amyloid nucleation score result is “inactive”. Under SLLGISVFKPERANTGQRLV stands 0.721 ± 0.23; under SLLLLSGFEVSSKR, “inactive”; under SLLSRFIEEGASCRCTRDGS, “inactive”. With SLMSGWN, the amyloid nucleation score result was “inactive”.

With SLNMSN, the amyloid nucleation score result is “inactive”. Turning to SLNNCGLLWYPSTTPPESLG, the amyloid nucleation score entry was “inactive”. Under SLNRWLSKYYLHTA stands “inactive”; under SLRPGLVLVIERNEFKS, “inactive”; under SLSFSVLLHWIFCYFWILY, “inactive”. Under SLSNSVWINFARNGLSSLCQ stands “inactive”.

The values are drawn from the supplement of paper PMC12042874.
